{"source": "patent US20240277861A1", "about": "“ANTI-HEPATITIS B VIRUS AGENT TARGETING HOST FACTOR LIPG” (PUROTECH BIO, INC., priority 2021, published 2024)"}
{"tested_on": "HBV", "experiment": "Anti-HBV activities of LIPG-binding peptides delivered into PXB cells-2 (scFv fusions, 4% PEG)", "assay_type": "cell-based", "conditions": "presence of 4% PEG", "procedure": "(§1) An infection source medium was prepared by adding the HBV-infected chimeric mouse serum (PhoenixBio), DMSO, and a PEG 8000 solution to the PXB cell culture medium (PhoenixBio) at final concentrations of 5 genome equivalents/cell, 2%, and 4%, respectively. Various synthesized peptides were diluted to different concentrations in this medium, and the resulting media were added individually to PXB cells (PhoenixBio). After the cells were left to stand in a 5% CO2 incubator at 37° C. for 20 to 28 hours, the medium was removed and the wells were washed once with PBS(−). DMSO and one of the various synthesized peptides were added to the PXB cell culture medium at a final concentration of 2% and different concentrations, respectively, and the resulting media were added individually to the PXB cells to perform medium exchange. This medium exchange was performed at 1, 5, and 9 days post infection and samples were collected at 14 days post infection.\n(§2) SMI TEST™ M EX-R&D (Medical & Biological Laboratories) was used to extract DNA from the samples. The extracted DNA was used as a template for quantitative PCR of HBV-DNA. For cccDNA detection, the extracted DNA was treated with T5 exonuclease (New England Biolabs), and the resulting DNA was used as a template for quantitative PCR. The T5 exonuclease treatment was performed at 37° C. for 30 minutes, and the DNase was later inactivated by heating at 80° C. for 15 minutes. The following primer set was used for detection.\nThe anti-HBV activities of LIPG-binding peptides delivered into cells were evaluated using PXB cells and anti-ASGR single-chain antibody-LIPG-binding peptide fusions. The anti-HBV activity was evaluated in the presence of 4% PEG. The evaluation of the anti-HBV effect in the presence of PEG is more stringent than under the conditions in Example 18 without the presence of PEG because the HBV-DNA and cccDNA copy numbers are increased in the presence of PEG. Of the fusions prepared in Example 16, 10M-LN4SN, 10M-LN4N, 10M-LLNTSN, and 10M-LLNTSN-S39 were used. According to the timeline shown in FIG. 42A, the anti-HBV activities of the fusions were evaluated using the methods described in “(10-5) Infection experiment using PXB cells” and “(10-6) Quantification of HBV-DNA and cccDNA”."}
{"molecule": "10M-LN4SN: fusion of ASGR3-10M scFv, cleavage sequence, LIPH4-N4BP1b, S28, nuclear localization signal (SEQ ID NO: 134) (protein, cleavage sequence + LIPH4-N4BP1b + Flag-tag + His-tag + S28 + nuclear localization signal) RVRRSNCRINTFRDYKDDDDKHHHHHHHPFVIGAGVLGALGTGIGGITTSTQFYYKPAAKRVKLD", "HBV-DNA copy number": "remarkably reduced", "cccDNA copy number": "remarkably reduced"}
{"molecule": "10M-LLNTSN: fusion of ASGR3-10M scFv, cleavage sequence, LIPH4-LNTNBs, S28, nuclear localization signal (SEQ ID NO: 131) (protein, cleavage sequence + LIPH4-NTNBs + Flag-tag + His-tag + S28 + nuclear localization signal) RVRRLNCRHNTAGDYKDDDDKHHHHHHHPFVIGAGVLGALGTGIGGITTSTQFYYKPAAKRVKLD", "HBV-DNA copy number": "remarkably reduced", "cccDNA copy number": "remarkably reduced"}
{"molecule": "10M-LLNTSN-S39: fusion of ASGR3-10M scFv, cleavage sequence, LIPH4-LNTNBs, S39, nuclear localization signal (SEQ ID NO: 132) (protein, cleavage sequence + LIPH4-NTNBs + Flag-tag + His-tag + S39 + nuclear localization signal) RVRRLNCRHNTAGDYKDDDDKHHHHHHHPFVIGAGVLGALGTGIGGITTSTQFYYKLSQELNGDMERPAAKRVKLD", "HBV-DNA copy number": "remarkably reduced", "cccDNA copy number": "remarkably reduced"}
{"molecule": "10M-LN4N: fusion of ASGR3-10M scFv, cleavage sequence, LIPH4-N4BP1a, S28, nuclear localization signal (SEQ ID NO: 133) (protein, cleavage sequence + LIPH4-N4BP1a + Flag-tag + His-tag + S28 + nuclear localization signal) RVRRSNCRINTFRTVPIEQKDYKDDDDKHHHHHHHPFVIGAGVLGALGTGIGGITTSTQFYYKPAAKRVKLD", "HBV-DNA copy number": "remarkably reduced", "cccDNA copy number": "remarkably reduced"}
{"target": "T1, full-length form of LIPG (500 amino acids) (Homo sapiens, UniProt Q9Y5X9)", "T1 construct": "A pull-down assay was performed on the full-length form of LIPG (500 amino acids); made in house", "T1 sequence (Q9Y5X9 21-500)": "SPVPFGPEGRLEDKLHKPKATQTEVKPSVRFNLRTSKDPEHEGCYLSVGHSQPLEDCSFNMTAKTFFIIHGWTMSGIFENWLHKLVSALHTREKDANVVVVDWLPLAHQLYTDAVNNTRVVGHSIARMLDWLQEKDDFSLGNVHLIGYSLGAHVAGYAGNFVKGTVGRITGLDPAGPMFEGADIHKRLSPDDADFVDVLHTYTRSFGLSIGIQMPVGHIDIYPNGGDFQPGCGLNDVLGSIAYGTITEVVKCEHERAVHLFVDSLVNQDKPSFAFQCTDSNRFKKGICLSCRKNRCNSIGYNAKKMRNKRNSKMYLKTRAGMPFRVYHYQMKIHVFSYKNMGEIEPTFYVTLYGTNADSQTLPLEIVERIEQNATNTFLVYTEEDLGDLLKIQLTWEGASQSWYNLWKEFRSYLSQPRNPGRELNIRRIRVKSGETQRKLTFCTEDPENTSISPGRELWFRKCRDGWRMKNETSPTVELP", "experiment": "Pull-down assay of LIPH4 peptides against full-length LIPG", "assay_type": "binding", "conditions": "culture supernatant of transfected 293T cells, compared with no bait", "procedure": "Human embryonic kidney 293T cells were cultured in DMEM (1.0 g/l glucose) with L-Gln and Sodium Pyruvate, liquid (Nacalai) supplemented with 10% FCS ([…]). Plating was performed in a 1:2 ratio on 6 cm dishes 24 hours before transfection. Lipofectamine 2000 in a volume of 20 μl was added to 500 μl of Opti-MEM 1 and allowed to stand for 5 minutes at room temperature, and the resulting mixture was gently added to a 6 cm dish containing a mixture of 500 μl of Opti-MEM 1 and 8 μg of a plasmid DNA. The resulting mixture was allowed to stand for 20 minutes at room temperature, and then added to a 6 cm dish containing 293T cells, and the cells were cultured at 37° C. in 5% CO2 for 4 to 6 day.\nResin (Streptavidin MagneSphere Paramagnetic Particles) (Promega) was washed using the MagneSphere Technology Magnetic Separation Stand (tweleve-position). The resin in a volume of 40 μl was added to each 1.5 ml tube, and after removal of the solution, washed three times with 1 ml of PBS. The resin was transferred to new tubes and mixed with 0.5 nmol (109 μl) of LIPG-BioFLAGHis or with 109 μl of PBS as a no bait control, and the resulting mixtures were agitated at 4° C. for 1 hour by rotation on a mini-disk rotor (BIO CRAFT) to allow binding. After removal of the solution, the resin was washed three times with 1 ml of TBST (containing 0.05% Tween 20). The resin was transferred to new tubes, blocked with 1 ml of ELISA BSA buffer (TBS, 0.05%, Tween 20, 1% BSA. Nacalai Tesque, Inc.) at 4° C. for 1 hour, and then washed three times with 1 ml of ELISA BSA buffer. The resin was transferred to new tubes, and 1000 μl of the culture supernatant containing expressed KIgk-LIPH4 was mixed with […] of the resin treated with LIPG-BioFLAGHis or without the bait, and the resulting mixtures were agitated at 4° C. for 1 hour and 30 minutes by rotation on a mini-disk rotor (BIO CRAFT) to allow binding. After removal of the solution, the resin was washed three times with […] of TBST (Tween 20, 0.1%), and the recovered resin was used for Western blotting.\nEach resin was mixed with water and LDS sample buffer (4×), 0.2 mM DTT, heated at 70° C. for 10 minutes, and then subjected to SDS-PAGE. SDS-PAGE was performed using 4-12% Bis-Tris gel and NuPAGE MES-SDS electrophoresis buffer (Invitrogen) at 200 V and 400 mA for 35 minutes. After electrophoresis, transfer was performed using Mini Format, 0.2-μm PVDF, Single-application (BIO-RAD) Trans-Blot Turbo. The membrane was blocked with a Blocking One Buffer: TBST (1:9) solution and reacted with an anti-Flag-HRP (Sigma: A8592) diluted 2:3000 in a Blocking One Buffer: TBST (1:9) solution. Detection was performed using ECL (Enhanced ChemiLuminescence) on a ChemiDoc (BIO-RAD).\nA pull-down assay was performed on the full-length form of LIPG (500 amino acids) with LIPH4 peptides (FIG. 16)."}
{"molecule": "IRNVNHSDH (LIPH4-74) [KIgk-LIPH4-74]", "binding to LIPG in pull-down assay": "positive"}
{"molecule": "SLYTGFRAH (LIPH4-2) [KIgk-LIPH4-2]", "binding to LIPG in pull-down assay": "positive"}
{"molecule": "GADLRRGCC (LIPH4-87) [KIgk-LIPH4-87]", "binding to LIPG in pull-down assay": "positive"}
{"molecule": "LCECRDVLSCYYITDT (LIPH4-90) [KIgk-LIPH4-90]", "binding to LIPG in pull-down assay": "positive"}
{"molecule": "LVPWLRYAY (LIPH4-12) [KIgk-LIPH4-12]", "binding to LIPG in pull-down assay": "positive"}
{"molecule": "RCRQSWNTM (LIPH4-14) [KIgk-LIPH4-14]", "binding to LIPG in pull-down assay": "positive"}
{"molecule": "CPCVNGATRHRPTSLC (LIPH4-16) [KIgk-LIPH4-16]", "binding to LIPG in pull-down assay": "positive"}
{"molecule": "LNVGYVFYP (LIPH4-15) [KIgk-LIPH4-15]", "binding to LIPG in pull-down assay": "positive"}
{"tested_on": "HBV", "experiment": "Anti-HBV activities of LIPG-binding peptides in PXB cells", "assay_type": "cell-based", "conditions": "HBV-infected PXB cells", "procedure": "as §1, §2\n(§3) PXB cells, fresh human liver cells isolated from PXB mice (human hepatocyte chimeric mice), are human liver cells that maintain human liver functions at high levels and allow persistent infection with hepatitis B virus (HBV). Therefore, PXB cells were used to evaluate the anti-HBV activities of LIPG-binding peptides. LIPG-binding peptides were chemically synthesized because they were added extracellularly (Eurofins Genomics K.K.). Clones that had shown excellent results in the studies of Examples 10 and 1 (KIgk-LIPH4-23, KIgk-LIPH4-74, KIgk-LIPH4-15, KIgk-L1l 14-2. KIgk-LIPH14-14. KIgk-LIPH4-87) were selected for chemical synthesis of the peptides. […] Therefore, LIPH4-NTNA and LIPH4-NTNB, which share a common sequence with netrins and consist of 16 amino acids, were also chemically synthesized. The chemically synthesized peptides were dissolved in DMSO for use in HBV assays in PXB cells.\n(§4) Next, the anti-HBV activity of full-length Netrin-1 was examined in PXB cells. A full-length human recombinant Netrin-1 protein consisting of 604 amino acid residues (molecular weight: 67.5 kDa, SEQ ID NO: 28) was purchased from R&D Systems. United States. A shRNA with the sequence […]ctcgagc[…] TTTTTTG (single underline: terminal sequences for cloning, lowercase letters: hairpin loop sequence) (SEQ ID NO: 64) was used to knock down the Netrin-1 gene."}
{"molecule": "RKSGGVCLNCRHNTAG (LIPH4-NTNA)", "anti-HBV activity (effect to reduce HBV DNA and cccDNA copy numbers)": "as strongly as the polypeptides (5) to (10)"}
{"molecule": "LNCRHNTAGRHCHYCK (LIPH4-NTNB)", "anti-HBV activity (effect to reduce HBV DNA and cccDNA copy numbers)": "high anti-HBV activity"}
{"tested_on": "HBV", "experiment": "Anti-HBV activities of LIPG-binding peptides in PXB cells", "assay_type": "cell-based", "conditions": "HBV-infected PXB cells; listed as polypeptide (12)", "procedure": "as §1, §2, §3, §4"}
{"molecule": "LNCRHNTAGRHCHYCK (LIPH4-NTNB)", "anti-HBV activity (effect to reduce HBV DNA and cccDNA copy numbers)": "as strongly as the polypeptides (5) to (10)"}
{"tested_on": "HBV", "experiment": "Anti-HBV activities of LIPG-binding peptides in PXB cells", "assay_type": "cell-based", "conditions": "PXB cells, Netrin-1 gene knocked down, vs control", "procedure": "as §1, §2, §3, §4"}
{"molecule": "Netrin-1 shRNA: shRNA of SEQ ID NO: 64 used to knock down the Netrin-1 gene (guide CCGGGACTGCGATTCCTACTGCAAGCTCGAGCTTGCAGTAGGAATCGCAGTCTTTTTTG) [reference compound]", "HBV-DNA copy number": "remarkably increased", "cccDNA copy number": "remarkably increased"}
